Among the data in the RNAGym collection of RNA variant scans (doi:10.7554/elife.80360) are self-cleavage values, retold here.

To fix the notation:
B1: CPEB3 Ribozyme (parent)
chain: GGGGGCCACAGCAGAAGCGUUCACGUCGCGGCCCCUGUCAGAUUCUGGUGAAUCUGCGAAUUCUGCUGU

The data set covers variants of B1. In words: self-cleavage, relative activity (ratio to wild type); higher = more cleavage; co-transcriptional.
On to GGGGGCAACAGCAGAAGCGUUCACGUCGCGGCCCCUGUCAGAUUCUGGUGGAUCUGCGAAUUCUGCUGU [C7A A51G], for which the self-cleavage came to 0.514. The result for GGGGGCAACAGCAGAAGCGUUCACGUCGCGGCCCCUGUCAGAUUCUGGUGCAUCUGCGAAUUCUGCUGU [C7A A51C] reads 0.477; that for GGGGGCAACAGCAGAAGCGUUCACGUCGCGGCCCCUGUCAGAUUCUGGUGAAUCUGCGAAUUCUGGUGU [C7A C66G], 0.42. For GGGGGCAACAGCAGAAGCGUUCACGUCGCGGCCCCUGUCAGAUUCUGGUGAAUCUGCGAAUUCUGAUGU [C7A C66A], the self-cleavage stood at 0.354.

Regarding GGGGGCAACAGCAGAAGCGUUCACGUCGCGGCCCCUGUCAGAUUCUGGUGAAUCUGCGAAUUCUGUUGU [C7A C66U], the self-cleavage worked out at 0.697.

As for GGGGGCAACAGCAGAAGCGUUCACGUCGCGGCUCCUGUCAGAUUCUGGUGAAUCUGCGAAUUCUGCUGU [C7A C33U], the self-cleavage was 0.489. For the variant GGGGGCAACAGCAGAAGCGUUCACGUCGCGGCACCUGUCAGAUUCUGGUGAAUCUGCGAAUUCUGCUGU [C7A C33A], the self-cleavage was found to be 0.119. Consider GGGGGCAACAGCAGAAGCGUUCACGUCGCGGCGCCUGUCAGAUUCUGGUGAAUCUGCGAAUUCUGCUGU [C7A C33G], for which the self-cleavage stood at 0.226. The result for GGGGGCAACAGCAGAUGCGUUCACGUCGCGGCCCCUGUCAGAUUCUGGUGAAUCUGCGAAUUCUGCUGU [C7A A16U] reads 0.222; that for GGGGGCAACAGCGGAAGCGUUCACGUCGCGGCCCCUGUCAGAUUCUGGUGAAUCUGCGAAUUCUGCUGU [C7A A13G], 0.598; that for GGGGGCAACAGCUGAAGCGUUCACGUCGCGGCCCCUGUCAGAUUCUGGUGAAUCUGCGAAUUCUGCUGU [C7A A13U], 0.274. As to GGGGGCAACGGCAGAAGCGUUCACGUCGCGGCCCCUGUCAGAUUCUGGUGAAUCUGCGAAUUCUGCUGU [C7A A10G], the self-cleavage was 0.865. GGGGGCAACCGCAGAAGCGUUCACGUCGCGGCCCCUGUCAGAUUCUGGUGAAUCUGCGAAUUCUGCUGU [C7A A10C]: the self-cleavage was 0.76. The result for GGGGGCAACAUCAGAAGCGUUCACGUCGCGGCCCCUGUCAGAUUCUGGUGAAUCUGCGAAUUCUGCUGU [C7A G11U] reads 0.315; that for GGGGGCAACAACAGAAGCGUUCACGUCGCGGCCCCUGUCAGAUUCUGGUGAAUCUGCGAAUUCUGCUGU [C7A G11A], 0.401; that for GGGGGCAACAGCAGAAGCGUUCACGUCGCGGCCCCUGUCAGAUUCUGGUGAAUCUGCGAUUUCUGCUGU [C7A A60U], 0.225. For the variant GGGGGCAACAGCAGAAGCGUUCACGUCGCGGCCCCUGUCAGAUUCUGGUGAAUCUGCGACUUCUGCUGU [C7A A60C], the self-cleavage was 0.152. Under GGGGGCAACAGCAGAAGCGUUCACGUCGCGGCCCCUGUUAGAUUCUGGUGAAUCUGCGAAUUCUGCUGU [C7A C39U] stands 0.348; under GGGGGCAACAGCAGAAGCGUUCACGUCGCGGCCCCUGUAAGAUUCUGGUGAAUCUGCGAAUUCUGCUGU [C7A C39A], 0.186; under GGGGGUCACAGCAGAAGCGUUCACGUCGCGGCCCCUGUCAGAUUCUGGUGAAUCUGCGAAUUCUGCUGA [C6U U69A], 1.05. For GGGGGUCACAGCAGAAGCGUUCACGUCGCGGCCCCUGUCAGAUUCUGGUGAAUCUGCGAAUUCUGCUGG [C6U U69G], the self-cleavage came to 1.04. For GGGGGCAACAGCAGAAGAGUUCACGUCGCGGCCCCUGUCAGAUUCUGGUGAAUCUGCGAAUUCUGCUGU [C7A C18A], the self-cleavage worked out at 0.0823. The result for GGGGGCAACAGCAGAAGCGUUCACGUCGCGGCCCUUGUCAGAUUCUGGUGAAUCUGCGAAUUCUGCUGU [C7A C35U] reads 0.222; that for GGGGGCAACAGCAGAAGCGUUCACGUCGCGGCCCGUGUCAGAUUCUGGUGAAUCUGCGAAUUCUGCUGU [C7A C35G], 0.156; that for GGGGGUCACAGCAGAAGCGUUCACGUCGCGGCCCCUGUCAGAUUCUGGUGAAUCUGCGAAUUCUGCGGU [C6U U67G], 0.995. Under GGGGGCAACAGCAGAAGCGUUCACGUCGGGGCCCCUGUCAGAUUCUGGUGAAUCUGCGAAUUCUGCUGU [C7A C29G] stands 0.12.

On to GGGGGCAACAGCAGAAGCGUUCACGUCGUGGCCCCUGUCAGAUUCUGGUGAAUCUGCGAAUUCUGCUGU [C7A C29U], for which the self-cleavage was 0.261.

For the variant GGGGGCAACAGCAGAAGCGUUCACGUCGCGGCCCCUGUCAGAUUCUGGUGACUCUGCGAAUUCUGCUGU [C7A A52C], the self-cleavage turned out to be 0.412. Under GGGGGCAACAGCAGAAGCGUUCACGUCGCGGCCCCUGUCAGAUUCUGGUGAUUCUGCGAAUUCUGCUGU [C7A A52U] stands 0.466; under GGGGGUCACAGCAGAAGCGUUCACGUCGCGGCCCCUGUCAGAUUCUGGUGAAUCUGCGAAUUCAGCUGU [C6U U64A], 0.853.

Take GGGGGUCACAGCAGAAGCGUUCACGUCGCGGCCCCUGUCAGAUUCUGGUGAAUCUGCGAAUUCGGCUGU [C6U U64G]: the self-cleavage amounted to 0.92. Under GGGGGUCACAGCAGAAGCGUUCACGUCGCGGCCCCUGUCAGAUUCUGGUGAAUCUGCGAAUUCCGCUGU [C6U U64C] stands 0.829; under GGGGGCAACAGCAGAAGCGUUCACGUCGCGGCCCCUGUCAGAUUCUGGUGAAUCUGAGAAUUCUGCUGU [C7A C57A], 0.173; under GGGGGCAACAGCAGAAGCGUUCACGUCGCGGCCCCUGUCAGAUUCUGGUGAAUCUGUGAAUUCUGCUGU [C7A C57U], 0.172. Regarding GGGGGCAACAGCAGAAGCGUUCACCUCGCGGCCCCUGUCAGAUUCUGGUGAAUCUGCGAAUUCUGCUGU [C7A G25C], the self-cleavage was found to be 0.144. The result for GGGGGCAACAGCAGAAGCGUUCACAUCGCGGCCCCUGUCAGAUUCUGGUGAAUCUGCGAAUUCUGCUGU [C7A G25A] reads 0.163.

In the case of GGGGGCAACAGCAGAAGCGUUCUCGUCGCGGCCCCUGUCAGAUUCUGGUGAAUCUGCGAAUUCUGCUGU [C7A A23U], the self-cleavage amounted to 0.824. Under GGGGGCAACAGCAGAAGCGUUCGCGUCGCGGCCCCUGUCAGAUUCUGGUGAAUCUGCGAAUUCUGCUGU [C7A A23G] stands 0.421; under GGGGGCAACAGCAGAAGCGUUGACGUCGCGGCCCCUGUCAGAUUCUGGUGAAUCUGCGAAUUCUGCUGU [C7A C22G], 0.0999.
